Test results taken from patent publication US20230110188A1 (ARGENX IIP, published 2023).
Where a chain is given by its changes, count along the chain named.

T1: hMuSK delta 1 (Ig2-3 Fz) (human, UniProt O15146)
T1 construct: truncated extracellular domain, captured by anti-FLAG
T1 sequence (truncated extracellular domain, looked up): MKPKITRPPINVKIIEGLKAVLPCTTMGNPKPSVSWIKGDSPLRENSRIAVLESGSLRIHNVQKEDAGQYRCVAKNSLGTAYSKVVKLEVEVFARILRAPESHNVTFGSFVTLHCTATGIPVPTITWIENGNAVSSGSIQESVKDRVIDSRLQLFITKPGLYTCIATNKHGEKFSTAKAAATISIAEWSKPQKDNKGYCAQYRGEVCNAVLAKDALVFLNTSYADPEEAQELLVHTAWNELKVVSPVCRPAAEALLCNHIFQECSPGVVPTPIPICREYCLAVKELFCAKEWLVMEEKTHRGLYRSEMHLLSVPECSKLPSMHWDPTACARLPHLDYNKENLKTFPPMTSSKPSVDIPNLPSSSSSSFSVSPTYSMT

T2: Human MuSK (R&D Systems, cat. 10189-MK, histidine tag) (human, UniProt O15146 24-495)
T2 construct: Bought protein; also called human monomeric MuSK-6xhis; not shown: histidine tag (6xhis)
T2 sequence: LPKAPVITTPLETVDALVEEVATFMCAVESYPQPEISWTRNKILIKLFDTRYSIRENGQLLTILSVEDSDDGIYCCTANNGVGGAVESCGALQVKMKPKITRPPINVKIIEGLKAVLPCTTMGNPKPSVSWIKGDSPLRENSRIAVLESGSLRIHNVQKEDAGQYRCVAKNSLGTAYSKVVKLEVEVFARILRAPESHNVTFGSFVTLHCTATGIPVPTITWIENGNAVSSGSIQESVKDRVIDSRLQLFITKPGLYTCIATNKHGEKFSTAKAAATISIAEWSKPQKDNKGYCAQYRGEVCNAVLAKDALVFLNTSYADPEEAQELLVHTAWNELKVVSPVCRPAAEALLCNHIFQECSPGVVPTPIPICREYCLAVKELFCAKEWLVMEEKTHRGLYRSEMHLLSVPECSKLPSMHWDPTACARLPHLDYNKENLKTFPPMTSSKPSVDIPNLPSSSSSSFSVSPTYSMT

T3: human monomeric MuSK FLAG streptavidin (in house produced, batch 27-6-2019) (human, UniProt O15146 24-495)
T3 construct: also called full length MuSK; not shown: FLAG and streptavidin tags
T3 sequence: T2 sequence

B1: 3D10a (antibody, human IgG1, kappa, L234A L235A, V domains shown)
VH: EVQLVESGGGLVKPGGSLRLSCAASGFTFSASTMAWVRQAPGKGLEWVSSVSGDSHHIYYADSLKGRFTISRDNAKNSLYLQMNSLRAEDTAVYYCARERLLRLGVGFDSWGQGTLVTVSS
VL: DIQMTQSPSSLSASVGDRVTITCRASQRISGFVNWYQQKPGKAPKLLIYAASTLQSGVPSRFSGSGSGTDFTLTISSLQPEDFATYYCQQSYSPLYTFGQGTKLEIKR
B2: 3F6c (antibody, human IgG1, kappa, L234A L235A, V domains shown)
VH: EVQLVESGGGLVKPGGSLRLSCAASGFTFSSYTMDWVRQAPGKGLEWVSSIGSNGDYIYYADSVRGRFTISRDNAKNSLYLQMNSLRAEDTAVYYCARGQLAVAGTHFDYWGQGTLVTVSS
VL: B1 VL with R28K, I29V, S30N, G31K, F32Y, Y96S
B3: 3D9b (antibody, human IgG1, kappa, L234A L235A, V domains shown)
VH: EVQLVESGGGLVKPGGSLRLSCAASGFTFSTYTMHWVRQAPGKGLEWVSSISSRSAYKYYADSVKGRFTISRDNAKNSLYLQMNSLRAEDTAVYYCARDFFQLGPPRFDSWGQGTLVTVSS
VL: B1 VL with G31S, V33L, A50G, T53N, L95S
B4: 4D3 (antibody, human IgG1, kappa, L234A L235A, V domains shown)
VH: B1 VH with A31S, S32Y, A35T, V51I, G53S, D54G, S55G, H57Y, A61T, S110F
VL: B1 VL with R28S, F32Y, V33L, P94A

target: T1, hMuSK delta 1 (Ig2-3 Fz); experiment: ELISA, hMuSK delta 1 (Ig2-3 Fz) captured on anti-FLAG coat, antibody titrated, anti-human Fc HRP detection, OD450
Experimental: For binding to MuSK domains—An ELISA plate was coated with 0.5 μg/ml of anti-FLAG (M2 clone, Sigma Cat. F3165) and incubated overnight at 4° C. Next, the plate was washed with PBS and blocked with 1×PBS 1% casein for two hours at RT. After washing the plate, human monomeric MuSK FLAG streptavidin (batch 27-6-2019) and truncated MuSK variants (batch 3-9-2019) at 1 μg/ml in PBS where incubated for one hour at RT. After washing the plate, antibodies were diluted in blocking buffer and added to the plate. After a one hour incubation at RT, the plate was washed. Next, detecting antibody was added and incubated for one hour at RT (anti-human Fc HRP (1/5000) (clone 5A9, cat. No. Ab7499, ABCAM)) in blocking buffer. Lastly, the plate was washed with PBS and TMB was added and the reaction was stopped with 0.5 M H2SO4. OD 450 nm was determined by the Tecan Sunrise ELISA plate reader.
For the MuSK domain binding ELISA, binding of anti-MuSK antibodies to FLAG captured human monomeric MuSK and truncated variants was tested (FIG. 6). 3D9b, 3F6c, 3D10a, 4D3 and 3B5 bound only to full length MuSK, no binding was observed against the truncated MuSK variants. Therefore, we conclude that our antibodies bind to the Ig1 domain.

Binder | binding result
B1 | no binding (tested: log(conc) 4.2 (about 16000 ng/ml))
B2 | no binding (tested: log(conc) 4.2 (about 16000 ng/ml))
B3 | no binding (tested: log(conc) 4.2 (about 16000 ng/ml))
B4 | no binding (tested: log(conc) 4.2 (about 16000 ng/ml))

target: T2, Human MuSK (R&D Systems, cat. 10189-MK, …); experiment: SPR (Biacore), antibody captured on anti-hFc chip; 2.5 nM; dissociation pH 5.5
Description: (§1) In order to study pH dependent binding of our antibodies to MuSK, the Biacore was used with the same setup as described in the paragraph entitled “Binding affinity for mouse, human and rhesus monkey recombinant MuSK in Biacore”. 6. […] For the other antibodies there is no real difference observed between pH 7.4 and 5.5.

Binder | koff
B1 | 9e-05 s⁻¹
B2 | 0.0002 s⁻¹
B3 | 4e-05 s⁻¹
B4 | 0.00014 s⁻¹

target: T2, Human MuSK (R&D Systems, cat. 10189-MK, …); experiment: SPR (Biacore), MuSK-coated chip presaturated with 500 nM 3D10a (competitor)
Experimental: (§2) A chip was coated with ˜5000 RU of human MuSK (Lot nr DHUCO 11908A, batch nr 1089_MK). In a first experiment the saturating concentration of the pre-leads was determined. This is the concentration where the amplitude of a specific pre-lead doesn't increase anymore when additional pre-lead is injected on the immobilized MuSK.

Binder | amplitude of prelead after presaturating MuSK (RU) | extra amplitude (%) | normalized extra amplitude (%)
B1 | 56 RU | 1.8% | 0.2%
B2 | 26 RU | 1% | -0.6%
B3 | 169 RU | 8% | 6.4%
B4 | 42 RU | 1.6% | 0%

target: T2, Human MuSK (R&D Systems, cat. 10189-MK, …); experiment: SPR (Biacore), antibody captured on anti-hFc chip; average of 0.3125-10 nM; dissociation pH 7.4
Description: as §1

Binder | koff
B1 | 0.00016 s⁻¹
B2 | 8e-05 s⁻¹
B3 | 0.00012 s⁻¹
B4 | 0.00014 s⁻¹

target: T2, Human MuSK (R&D Systems, cat. 10189-MK, …); experiment: SPR (Biacore), antibody captured on anti-hFc chip; 0.3125 nM; dissociation pH 5.5
Description: as §1

Binder | koff
B1 | 6e-05 s⁻¹
B2 | 0.00023 s⁻¹
B3 | 3e-05 s⁻¹
B4 | 0.00018 s⁻¹

target: T2, Human MuSK (R&D Systems, cat. 10189-MK, …); experiment: SPR (Biacore), MuSK-coated chip, antibody alone (run of first antibody 3F6c)
Experimental: as §2

Binder | amplitude of prelead without presaturating MuSK (RU)
B1 | 2370 RU
B2 | 3640 RU
B3 | 1660 RU
B4 | 2390 RU

target: T3, human monomeric MuSK FLAG streptavidin …; experiment: epitope binning ELISA (coated anti-MuSK Fab, MuSK, IgG, anti-Fc HRP); competitor: 3D10a
Experimental: For epitope binning—An ELISA plate was coated at 1 μg/ml of the anti-MuSK Fabs and incubated overnight at 4° C. Next, the plate was wash with PBS followed by blocking with 1% casein in PBS for one hour. After washing the plate, 1 μg/ml of human monomeric MuSK (in house produced, batch 27-6-2019) was incubated for one hour at RT. The plate was washed and anti-MuSK antibodies at 0.3-10 μg/ml were added to the plate and incubated for one hour at RT. After washing the plate, detection antibody (goat anti-human Fc HRP (Jackson Immunoresearch cat. 109-035-098)) was added at 5000 fold dilution in PBS 0.1% casein. The plate was incubated for one hour at RT and washed with PBS-T. TMB was added and the reaction was stopped by adding H2504. […]
For the epitope binning ELISA, a plate was coated with anti-MuSK Fab and human monomeric MuSK was added after blocking the plate. Next the different antibodies were added and allowed to bind.

Binder | OD 450 nm
B1 | 0.049 OD
B2 | 0.057 OD
B3 | 0.06 OD
B4 | 0.008 OD
